# Results taken from publication PMC10786891, “Massively parallel profiling of RNA-targeting CRISPR-Cas13d”.
# T1: EsCas13d, nuclease-dead (Eubacterium siraeum, UniProt B0MS50, R295A;H300A;R849A;H854A)
# T1 sequence: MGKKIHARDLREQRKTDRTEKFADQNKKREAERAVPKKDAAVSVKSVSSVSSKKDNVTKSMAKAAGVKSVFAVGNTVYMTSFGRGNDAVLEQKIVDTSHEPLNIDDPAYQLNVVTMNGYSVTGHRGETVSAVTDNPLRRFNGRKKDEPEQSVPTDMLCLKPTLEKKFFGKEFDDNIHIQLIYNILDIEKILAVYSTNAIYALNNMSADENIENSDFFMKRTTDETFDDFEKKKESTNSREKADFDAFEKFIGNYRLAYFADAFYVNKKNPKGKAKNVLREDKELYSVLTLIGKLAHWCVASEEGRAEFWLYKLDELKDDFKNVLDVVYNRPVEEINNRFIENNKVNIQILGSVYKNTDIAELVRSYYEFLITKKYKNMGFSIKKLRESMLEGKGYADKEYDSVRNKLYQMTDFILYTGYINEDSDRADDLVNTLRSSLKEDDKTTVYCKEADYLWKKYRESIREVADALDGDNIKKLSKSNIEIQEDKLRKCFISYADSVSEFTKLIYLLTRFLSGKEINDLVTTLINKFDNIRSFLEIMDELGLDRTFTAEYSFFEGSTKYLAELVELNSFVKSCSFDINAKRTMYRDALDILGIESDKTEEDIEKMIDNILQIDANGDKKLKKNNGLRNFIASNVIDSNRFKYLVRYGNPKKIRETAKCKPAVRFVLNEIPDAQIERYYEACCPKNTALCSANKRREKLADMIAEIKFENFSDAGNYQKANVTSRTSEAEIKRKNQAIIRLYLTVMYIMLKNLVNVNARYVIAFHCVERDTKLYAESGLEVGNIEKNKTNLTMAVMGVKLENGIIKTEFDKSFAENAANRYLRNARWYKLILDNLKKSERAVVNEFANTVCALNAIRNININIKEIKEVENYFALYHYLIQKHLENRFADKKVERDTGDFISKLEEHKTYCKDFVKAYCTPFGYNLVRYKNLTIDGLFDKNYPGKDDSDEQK
# B1: target 1 insC 3' of 14,insC 3' of 3 (mixed)
# RNA 1: CACCCGUGCAAAAAUGCAGGGGUCUAAAACUGAGCGGAUAACCUCUCUAUGG
# RNA 2: GGGAAUGGAUCCACAUCUACGAAUUCGUACCAUAGAGACGGUUAUCCGCUCCACCGAGAUCGGAAGAGCACACGU
# B2: target 1 insU 3' of 21,insA 3' of 11 (mixed)
# RNA 1: CACCCGUGCAAAAAUGCAGGGGUCUAAAACUGAGCGGAUAACCUCUCUAUGG
# RNA 2: GGGAAUGGAUCCACAUCUACGAAUUCGUACCUAUAGAGAGGUAUAUCCGCUCACCGAGAUCGGAAGAGCACACGU
# B3: target 1 insU 3' of 17,insG 3' of 1 (mixed)
# RNA 1: CACCCGUGCAAAAAUGCAGGGGUCUAAAACUGAGCGGAUAACCUCUCUAUGG
# RNA 2: GGGAAUGGAUCCACAUCUACGAAUUCGUACCAUAGUAGAGGUUAUCCGCUCAGCCGAGAUCGGAAGAGCACACGU
# B4: target 2 MT 5'PFS GUU 3'PFS AUG (mixed)
# RNA 1: CACCCGUGCAAAAUUGCAGGGGUCUAAAACCUUCUCCAAAUUGUUUCAUCCU
# RNA 2: GGGAAUGGAUCCACAUCUACGAAUUCGUUAGGAUGAAACAAUUUGGAGAAGAUGAGAUCGGAAGAGCACACGU
# B5: target 2 MT 5'PFS CGG 3'PFS CCG (mixed)
# RNA 1: CACCCGUGCAAAAUUGCAGGGGUCUAAAACCUUCUCCAAAUUGUUUCAUCCU
# RNA 2: GGGAAUGGAUCCACAUCUACGAAUUCCGGAGGAUGAAACAAUUUGGAGAAGCCGAGAUCGGAAGAGCACACGU
# B6: target 2 MT 5'PFS AUU 3'PFS UUU (mixed)
# RNA 1: CACCCGUGCAAAAUUGCAGGGGUCUAAAACCUUCUCCAAAUUGUUUCAUCCU
# RNA 2: GGGAAUGGAUCCACAUCUACGAAUUCAUUAGGAUGAAACAAUUUGGAGAAGUUUAGAUCGGAAGAGCACACGU
# B7: target 2 MT 5'PFS CAU 3'PFS CGC (mixed)
# RNA 1: CACCCGUGCAAAAUUGCAGGGGUCUAAAACCUUCUCCAAAUUGUUUCAUCCU
# RNA 2: GGGAAUGGAUCCACAUCUACGAAUUCCAUAGGAUGAAACAAUUUGGAGAAGCGCAGAUCGGAAGAGCACACGU
# B8: target 2 MT 5'PFS AGG 3'PFS UCU (mixed)
# RNA 1: CACCCGUGCAAAAUUGCAGGGGUCUAAAACCUUCUCCAAAUUGUUUCAUCCU
# RNA 2: GGGAAUGGAUCCACAUCUACGAAUUCAGGAGGAUGAAACAAUUUGGAGAAGUCUAGAUCGGAAGAGCACACGU
# B9: target 2 MT 5'PFS ACG 3'PFS UUC (mixed)
# RNA 1: CACCCGUGCAAAAUUGCAGGGGUCUAAAACCUUCUCCAAAUUGUUUCAUCCU
# RNA 2: GGGAAUGGAUCCACAUCUACGAAUUCACGAGGAUGAAACAAUUUGGAGAAGUUCAGAUCGGAAGAGCACACGU
# B10: target 2 MT 5'PFS UCU 3'PFS CCG (mixed)
# RNA 1: CACCCGUGCAAAAUUGCAGGGGUCUAAAACCUUCUCCAAAUUGUUUCAUCCU
# RNA 2: GGGAAUGGAUCCACAUCUACGAAUUCUCUAGGAUGAAACAAUUUGGAGAAGCCGAGAUCGGAAGAGCACACGU
# B11: target 2 MT 5'PFS GUU 3'PFS AUC (mixed)
# RNA 1: CACCCGUGCAAAAUUGCAGGGGUCUAAAACCUUCUCCAAAUUGUUUCAUCCU
# RNA 2: GGGAAUGGAUCCACAUCUACGAAUUCGUUAGGAUGAAACAAUUUGGAGAAGAUCAGAUCGGAAGAGCACACGU
# B12: target 2 MT 5'PFS CGG 3'PFS CCA (mixed)
# RNA 1: CACCCGUGCAAAAUUGCAGGGGUCUAAAACCUUCUCCAAAUUGUUUCAUCCU
# RNA 2: GGGAAUGGAUCCACAUCUACGAAUUCCGGAGGAUGAAACAAUUUGGAGAAGCCAAGAUCGGAAGAGCACACGU
# B13: target 2 MT 5'PFS UCG 3'PFS UAA (mixed)
# RNA 1: CACCCGUGCAAAAUUGCAGGGGUCUAAAACCUUCUCCAAAUUGUUUCAUCCU
# RNA 2: GGGAAUGGAUCCACAUCUACGAAUUCUCGAGGAUGAAACAAUUUGGAGAAGUAAAGAUCGGAAGAGCACACGU
# B14: target 2 MT 5'PFS GUU 3'PFS AUA (mixed)
# RNA 1: CACCCGUGCAAAAUUGCAGGGGUCUAAAACCUUCUCCAAAUUGUUUCAUCCU
# RNA 2: GGGAAUGGAUCCACAUCUACGAAUUCGUUAGGAUGAAACAAUUUGGAGAAGAUAAGAUCGGAAGAGCACACGU
# B15: target 2 MT 5'PFS AGC 3'PFS AUU (mixed)
# RNA 1: CACCCGUGCAAAAUUGCAGGGGUCUAAAACCUUCUCCAAAUUGUUUCAUCCU
# RNA 2: GGGAAUGGAUCCACAUCUACGAAUUCAGCAGGAUGAAACAAUUUGGAGAAGAUUAGAUCGGAAGAGCACACGU
# B16: target 2 MT 5'PFS CGC 3'PFS CUU (mixed)
# RNA 1: CACCCGUGCAAAAUUGCAGGGGUCUAAAACCUUCUCCAAAUUGUUUCAUCCU
# RNA 2: GGGAAUGGAUCCACAUCUACGAAUUCCGCAGGAUGAAACAAUUUGGAGAAGCUUAGAUCGGAAGAGCACACGU
# B17: target 2 MT 5'PFS ACG 3'PFS AGA (mixed)
# RNA 1: CACCCGUGCAAAAUUGCAGGGGUCUAAAACCUUCUCCAAAUUGUUUCAUCCU
# RNA 2: GGGAAUGGAUCCACAUCUACGAAUUCACGAGGAUGAAACAAUUUGGAGAAGAGAAGAUCGGAAGAGCACACGU
# B18: target 2 MT 5'PFS UCG 3'PFS UAG (mixed)
# RNA 1: CACCCGUGCAAAAUUGCAGGGGUCUAAAACCUUCUCCAAAUUGUUUCAUCCU
# RNA 2: GGGAAUGGAUCCACAUCUACGAAUUCUCGAGGAUGAAACAAUUUGGAGAAGUAGAGAUCGGAAGAGCACACGU
# B19: target 2 MT 5'PFS AGG 3'PFS ACC (mixed)
# RNA 1: CACCCGUGCAAAAUUGCAGGGGUCUAAAACCUUCUCCAAAUUGUUUCAUCCU
# RNA 2: GGGAAUGGAUCCACAUCUACGAAUUCAGGAGGAUGAAACAAUUUGGAGAAGACCAGAUCGGAAGAGCACACGU
# B20: target 2 MT 5'PFS ACG 3'PFS AGC (mixed)
# RNA 1: CACCCGUGCAAAAUUGCAGGGGUCUAAAACCUUCUCCAAAUUGUUUCAUCCU
# RNA 2: GGGAAUGGAUCCACAUCUACGAAUUCACGAGGAUGAAACAAUUUGGAGAAGAGCAGAUCGGAAGAGCACACGU
# B21: target 2 MT 5'PFS UUC 3'PFS UUC (mixed)
# RNA 1: CACCCGUGCAAAAUUGCAGGGGUCUAAAACCUUCUCCAAAUUGUUUCAUCCU
# RNA 2: GGGAAUGGAUCCACAUCUACGAAUUCUUCAGGAUGAAACAAUUUGGAGAAGUUCAGAUCGGAAGAGCACACGU
# B22: target 2 MT 5'PFS AGG 3'PFS ACU (mixed)
# RNA 1: CACCCGUGCAAAAUUGCAGGGGUCUAAAACCUUCUCCAAAUUGUUUCAUCCU
# RNA 2: GGGAAUGGAUCCACAUCUACGAAUUCAGGAGGAUGAAACAAUUUGGAGAAGACUAGAUCGGAAGAGCACACGU
# B23: target 2 MT 5'PFS CGG 3'PFS CCC (mixed)
# RNA 1: CACCCGUGCAAAAUUGCAGGGGUCUAAAACCUUCUCCAAAUUGUUUCAUCCU
# RNA 2: GGGAAUGGAUCCACAUCUACGAAUUCCGGAGGAUGAAACAAUUUGGAGAAGCCCAGAUCGGAAGAGCACACGU
# B24: target 2 MT 5'PFS UCG 3'PFS UAU (mixed)
# RNA 1: CACCCGUGCAAAAUUGCAGGGGUCUAAAACCUUCUCCAAAUUGUUUCAUCCU
# RNA 2: GGGAAUGGAUCCACAUCUACGAAUUCUCGAGGAUGAAACAAUUUGGAGAAGUAUAGAUCGGAAGAGCACACGU
# Biological target: T1, EsCas13d, nuclease-dead
# Test: crRNA (strand 1, pre-loaded); Mg2+; 40 mM Tris-HCl pH 7.5, 150 mM NaCl, 6 mM MgCl2, 1 mM DTT, 0.1% Tween-20, 0.2 mg/ml BSA; 25 C; 10 min per concentration, then washed
# Conditions: tags: His6-TwinStrep-SUMO cleaved; N-terminal SNAP kept (SNAP-Surface 488); label: 3' end held by stalled T7 RNA polymerase
row,Binder,Kd [nM]
1,B1,45 ± 7
2,B2,49 ± 5
3,B3,17.7 ± 2.1
4,B4,19.6 ± 2.4
5,B5,4.7 ± 0.4
6,B6,32 ± 7
7,B7,3.4 ± 0.6
8,B8,13.8 ± 2.1
9,B9,16 ± 6
10,B10,17.4 ± 3
11,B11,15 ± 1.2
12,B12,37 ± 18
13,B13,15 ± 4
14,B14,13.3 ± 1.9
15,B15,6.8 ± 1.2
16,B16,14 ± 4
17,B17,7.8 ± 2.4
18,B18,27 ± 7
19,B19,15 ± 6
20,B20,6.4 ± 1.1
21,B21,31 ± 8
22,B22,8.1 ± 1.8
23,B23,~19
24,B24,34 ± 14
